# Starred links: 1 amine or outer side, 2 acyl side, 3 side chain; linkers in the order of their positions; H or OH if unused. Non-standard residues stand in square brackets, D forms with d. *: point of attachment. Ala(piperidin-4-yl) = O=C([C@H](CC1CCN([*:3])CC1)N[*:1])[*:2]; (2-carboxyethyl)carbamoyl = O=C(O)CCNC(=O)*; Arg(Me) = CNC(=N)NCCC[C@H](N)C(=O)O; hArg = N=C(N)NCCCC[C@H](N)C(=O)O; 4Pal = N[C@@H](Cc1ccncc1)C(=O)O; Cha = N[C@@H](CC1CCCCC1)C(=O)O; Iva = CC[C@](C)(N)C(=O)O; Aib = CC(C)(N)C(=O)O
# B1: Ac-[D-Pro24, Arg(Me)25,30, Pya(4)26, Cha27,36, Aib28,31]-PYY(23-36) (peptide)
# peptide: Ac-S[dP][Arg(Me)][4Pal][Cha][Aib]N[Arg(Me)][Aib]TRQR[Cha]-NH2
# SMILES: CNC(=N)NCCC[C@H](NC(=O)[C@H](CC(N)=O)NC(=O)C(C)(C)NC(=O)[C@H](CC1CCCCC1)NC(=O)[C@H](Cc1ccncc1)NC(=O)[C@H](CCCNC(=N)NC)NC(=O)[C@H]1CCCN1C(=O)[C@H](CO)NC(C)=O)C(=O)NC(C)(C)C(=O)N[C@H](C(=O)N[C@@H](CCCNC(=N)N)C(=O)N[C@@H](CCC(N)=O)C(=O)N[C@@H](CCCNC(=N)N)C(=O)N[C@@H](CC1CCCCC1)C(N)=O)[C@@H](C)O
# B2: Ac-[D-Pro24, Iva25, Pya(4)26, Cha27,36, Aib28,31, Har30]-PYY(23-36) (peptide)
# peptide: Ac-S[dP][Iva][4Pal][Cha][Aib]N[hArg][Aib]TRQR[Cha]-NH2
# SMILES: CC[C@](C)(NC(=O)[C@H]1CCCN1C(=O)[C@H](CO)NC(C)=O)C(=O)N[C@@H](Cc1ccncc1)C(=O)N[C@@H](CC1CCCCC1)C(=O)NC(C)(C)C(=O)N[C@@H](CC(N)=O)C(=O)N[C@@H](CCCCNC(=N)N)C(=O)NC(C)(C)C(=O)N[C@H](C(=O)N[C@@H](CCCNC(=N)N)C(=O)N[C@@H](CCC(N)=O)C(=O)N[C@@H](CCCNC(=N)N)C(=O)N[C@@H](CC1CCCCC1)C(N)=O)[C@@H](C)O
# B3: Ac-[Arg23, D-Pro24, Iva25, Pya(4)26, Cha27,36, Aib28,31, Lys30]-PYY(23-36) (peptide)
# peptide: Ac-R[dP][Iva][4Pal][Cha][Aib]NK[Aib]TRQR[Cha]-NH2
# SMILES: CC[C@](C)(NC(=O)[C@H]1CCCN1C(=O)[C@H](CCCNC(=N)N)NC(C)=O)C(=O)N[C@@H](Cc1ccncc1)C(=O)N[C@@H](CC1CCCCC1)C(=O)NC(C)(C)C(=O)N[C@@H](CC(N)=O)C(=O)N[C@@H](CCCCN)C(=O)NC(C)(C)C(=O)N[C@H](C(=O)N[C@@H](CCCNC(=N)N)C(=O)N[C@@H](CCC(N)=O)C(=O)N[C@@H](CCCNC(=N)N)C(=O)N[C@@H](CC1CCCCC1)C(N)=O)[C@@H](C)O
# B4: (2-Carboxyethyl)carbamoyl-[D-Pro24, Iva25, Pya(4)26, Cha27,36, Aib28,31, Lys30]-PYY(23-36) (peptide)
# peptide: {(2-carboxyethyl)carbamoyl}-S[dP][Iva][4Pal][Cha][Aib]NK[Aib]TRQR[Cha]-NH2
# SMILES: CC[C@](C)(NC(=O)[C@H]1CCCN1C(=O)[C@H](CO)NC(=O)NCCC(=O)O)C(=O)N[C@@H](Cc1ccncc1)C(=O)N[C@@H](CC1CCCCC1)C(=O)NC(C)(C)C(=O)N[C@@H](CC(N)=O)C(=O)N[C@@H](CCCCN)C(=O)NC(C)(C)C(=O)N[C@H](C(=O)N[C@@H](CCCNC(=N)N)C(=O)N[C@@H](CCC(N)=O)C(=O)N[C@@H](CCCNC(=N)N)C(=O)N[C@@H](CC1CCCCC1)C(N)=O)[C@@H](C)O
# Molecular target: human Y2 receptor (human) (UniProt P49146)
# Sequence (P49146 whole entry): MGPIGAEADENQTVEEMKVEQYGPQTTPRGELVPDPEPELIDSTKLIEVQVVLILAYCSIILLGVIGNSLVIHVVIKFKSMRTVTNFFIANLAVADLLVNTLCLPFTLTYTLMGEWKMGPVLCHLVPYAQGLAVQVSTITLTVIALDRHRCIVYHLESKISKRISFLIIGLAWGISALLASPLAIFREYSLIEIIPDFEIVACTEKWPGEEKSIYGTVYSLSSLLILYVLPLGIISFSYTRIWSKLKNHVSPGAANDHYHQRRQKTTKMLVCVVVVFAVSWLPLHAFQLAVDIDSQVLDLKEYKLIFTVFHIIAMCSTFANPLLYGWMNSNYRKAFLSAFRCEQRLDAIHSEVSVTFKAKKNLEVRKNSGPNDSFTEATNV
# Test: cell-based or functional assay
row,Binder,GBA EC50 Ratio ([35S]GTPγS binding) (EC50 compound/EC50 PYY(3-36))
1,B1,1.5
2,B2,1
3,"Ac-S[dP][Ala(piperidin-4-yl)][4Pal][Cha][Aib]NK[Aib]TRQR[Cha]-NH2 (also: Ala(4Pip)25 D or L, not assigned, former peak isomer) [Ac-[D-Pro24, Ala(4Pip)25, Pya(4)26, Cha27,36, Aib28,31, Lys30]-PYY(23-36) former peak]",14
4,"Ac-S[dP][Ala(piperidin-4-yl)][4Pal][Cha][Aib]NK[Aib]TRQR[Cha]-NH2 (also: Ala(4Pip)25 D or L, not assigned, later peak isomer) [Ac-[D-Pro24, Ala(4Pip)25, Pya(4)26, Cha27,36, Aib28,31, Lys30]-PYY(23-36) later peak]",5.8
5,B3,0.78
6,B4,2.4
7,"Ac-S[dP][Iva][4Pal][Cha][Aib]N[Arg(Me)][Aib]TRQR[Cha]-NH2 [Ac-[D-Pro24, Iva25, Pya(4)26, Cha27,36, Aib28,31, Arg(Me)30]-PYY(23-36)]",1.7
8,"Carbamoylmethylcarbamoyl-S[dP][Iva][4Pal][Cha][Aib]NK[Aib]TRQR[Cha]-NH2 [Carbamoylmethylcarbamoyl-[D-Pro24, Iva25, Pya(4)26, Cha27,36, Aib28,31, Lys30]-PYY(23-36)]",1.7

# Molecular target: human Y2 receptor (human) (UniProt P49146)
# Test: RBA: displacement of [125I]-PYY from hY2R/CHO membranes
row,Binder,IC50 Ratio (IC50 compound/IC50 PYY(3-36))
1,B1,1.5
2,B2,0.65
3,"Ac-S[dP][Ala(piperidin-4-yl)][4Pal][Cha][Aib]NK[Aib]TRQR[Cha]-NH2 (also: Ala(4Pip)25 D or L, not assigned, former peak isomer) [Ac-[D-Pro24, Ala(4Pip)25, Pya(4)26, Cha27,36, Aib28,31, Lys30]-PYY(23-36) former peak]",18
4,"Ac-S[dP][Ala(piperidin-4-yl)][4Pal][Cha][Aib]NK[Aib]TRQR[Cha]-NH2 (also: Ala(4Pip)25 D or L, not assigned, later peak isomer) [Ac-[D-Pro24, Ala(4Pip)25, Pya(4)26, Cha27,36, Aib28,31, Lys30]-PYY(23-36) later peak]",4.3
5,B3,0.88
6,B4,3.2
7,"Ac-S[dP][Iva][4Pal][Cha][Aib]N[Arg(Me)][Aib]TRQR[Cha]-NH2 [Ac-[D-Pro24, Iva25, Pya(4)26, Cha27,36, Aib28,31, Arg(Me)30]-PYY(23-36)]",2.4
8,"Carbamoylmethylcarbamoyl-S[dP][Iva][4Pal][Cha][Aib]NK[Aib]TRQR[Cha]-NH2 [Carbamoylmethylcarbamoyl-[D-Pro24, Iva25, Pya(4)26, Cha27,36, Aib28,31, Lys30]-PYY(23-36)]",1.7

# — patent US20120172293A1 (Takeda / Millennium, published 2012)
